This experiment has as its target cellular BACE1 in CHOK1-huAPP cells. The experiment in a line: cell-based or functional assay.

B1: Clone35.23.4:Control IgG (anti-RSV)/2H8 (bispecific antibody, part only; not given: Anti-RSV arm; TfR-binding Fc, V domains shown, part only)
VH: QVQLVQSGAEVKKPGASVKVSCKASGYTFTNFWIHWVRQAPGQGLEWMGMIDPSSSYTKYNQKFKARATLTVDTSTSTVYMELSSLRSEDTAVYYCARSGASLPYWGQGTLVTVSS
VL: DIQMTQSPSSLSASVGDRVTITCKASQDVGRNVAWYQQKPGKSPKSLIYSASHYYSGVPSRFSGSGSGTDFTLTISSLQPEDFATYFCQQYYSYPYTFGQGTKVEIK
B1 registered a cellular IC50 (human Aβ40, CHO-huAPP cells) of 37 nM and a maximum percent Aβ reduction compared to untreated control of 83%.
